PMC12208167
pEC50, pKd: −log10 of the molar value.

Experiments:
[1] = molecular target: human neonatal Fc receptor (FcRn) (human) (UniProt P55899); assay: ELISA
[2] = molecular target: murine neonatal Fc receptor (FcRn) (mouse | not stated) (UniProt Q61559); assay: ELISA
[3] = molecular target: human neonatal Fc receptor (FcRn) (human) (UniProt P55899); assay: SPR
[4] = molecular target: murine neonatal Fc receptor (FcRn) (mouse | not stated) (UniProt Q61559); assay: SPR

pEC50 [1] | pEC50 [2] | pKd [3] | pKd [4] | Substance
5.94 | 6.89 | – | – | B domain-deleted (BDD) FVIII (ReFacto AF) (natural protein)
– | – | 8.55 to 8.89 | 9.40 to 9.70 | m66.6, human anti-MPER HIV monoclonal IgG1 (antibody)
